Drawing on publication PMC9462685 (Science Advances, 2022), this text covers Kd and stoichiometry N for one substance.

Experiment [1] addresses Sr35 (Triticum monococcum) (UniProt S5ABD6). Put plainly: MST.
Experiment [2] concerns the target 6×His-tagged AvrSr35 (residues 27 to 578) (Puccinia graminis f. sp. tritici). Put plainly: AUC.
Experiment [3] addresses Sr35 (Triticum monococcum) (UniProt S5ABD6). Put plainly: cryo-EM structure.

With “6×His-tagged AvrSr35 (residues 27 to 578) (natural protein)”, the dissociation constant Kd in experiment [1] was found to be 7.8 µM. Also, the values for the stoichiometry N in experiment [2] and in experiment [3] were 2 and 1, respectively.

As usually defined, the Kd is the equilibrium constant for the complex coming apart. Read a low Kd as tighter binding. What is called stoichiometry N is a count of units in the complex or per binding partner.
